One block for each binder: values may come before it.
Experiments:
Assay in all cases: flow cytometry, transfected cells
[1] = target: human CD33 P48L (human, UniProt P20138 18-364)
[2] = target: human CD33 P48M (human, UniProt P20138 18-364)
[3] = target: human CD33 P46I (human, UniProt P20138 18-364)
[4] = target: human CD33 F44D (human, UniProt P20138 18-364)
[5] = target: human CD33 Q24S (human, UniProt P20138 18-364)
[6] = target: human CD33 H45Y (human, UniProt P20138 18-364)
[7] = target: human CD33 P46L (human, UniProt P20138 18-364)
human CD33 P46L, sequence (P20138 18-364 P46L limits assumed): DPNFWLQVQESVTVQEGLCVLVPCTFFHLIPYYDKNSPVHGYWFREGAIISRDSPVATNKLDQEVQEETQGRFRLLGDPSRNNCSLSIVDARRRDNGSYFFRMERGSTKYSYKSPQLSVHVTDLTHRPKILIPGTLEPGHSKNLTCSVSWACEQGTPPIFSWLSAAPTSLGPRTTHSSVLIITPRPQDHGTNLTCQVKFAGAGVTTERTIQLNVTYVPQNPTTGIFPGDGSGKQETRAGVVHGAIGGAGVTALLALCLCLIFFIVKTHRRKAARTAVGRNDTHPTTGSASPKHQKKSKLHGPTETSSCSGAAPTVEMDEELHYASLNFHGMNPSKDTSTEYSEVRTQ

[8] = target: human CD33 F21H (human, UniProt P20138 18-364)
human CD33 F21H, sequence (P20138 18-364 F21H limits assumed): as the sequence (P20138 18-364 P46L limits assumed) above, with F4H, L29P counted along it

[9] = target: human CD33 F44P (human, UniProt P20138 18-364)
human CD33 F44P, sequence (P20138 18-364 F44P limits assumed): as the sequence (P20138 18-364 P46L limits assumed) above, with F27P, L29P counted along it

[10] = target: human CD33 Q24H (human, UniProt P20138 18-364)
human CD33 Q24H, sequence (P20138 18-364 Q24H limits assumed): as the sequence (P20138 18-364 P46L limits assumed) above, with Q7H, L29P counted along it

[11] = target: human CD33 P46S (human, UniProt P20138 18-364)
human CD33 P46S, sequence (P20138 18-364 P46S limits assumed): as the sequence (P20138 18-364 P46L limits assumed) above, with L29S counted along it

[12] = target: human CD33 Y49R (human, UniProt P20138 18-364)
human CD33 Y49R, sequence (P20138 18-364 Y49R limits assumed): as the sequence (P20138 18-364 P46L limits assumed) above, with L29P, Y32R counted along it

[13] = target: human CD33 K52S (human, UniProt P20138 18-364)
human CD33 K52S, sequence (P20138 18-364 K52S limits assumed): as the sequence (P20138 18-364 P46L limits assumed) above, with L29P, K35S counted along it

[14] = target: human CD33 D51K (human, UniProt P20138 18-364)
human CD33 D51K, sequence (P20138 18-364 D51K limits assumed): as the sequence (P20138 18-364 P46L limits assumed) above, with L29P, D34K counted along it

[15] = target: human CD33 Y49I (human, UniProt P20138 18-364)
human CD33 Y49I, sequence (P20138 18-364 Y49I limits assumed): as the sequence (P20138 18-364 P46L limits assumed) above, with L29P, Y32I counted along it

[16] = target: human CD33 Y49Q (human, UniProt P20138 18-364)
human CD33 Y49Q, sequence (P20138 18-364 Y49Q limits assumed): as the sequence (P20138 18-364 P46L limits assumed) above, with L29P, Y32Q counted along it

[17] = target: human CD33 K52G (human, UniProt P20138 18-364)
human CD33 K52G, sequence (P20138 18-364 K52G limits assumed): as the sequence (P20138 18-364 P46L limits assumed) above, with L29P, K35G counted along it

[18] = target: human CD33 Y49L (human, UniProt P20138 18-364)
human CD33 Y49L, sequence (P20138 18-364 Y49L limits assumed): as the sequence (P20138 18-364 P46L limits assumed) above, with L29P, Y32L counted along it

[19] = target: human CD33 P48I (human, UniProt P20138 18-364)
human CD33 P48I, sequence (P20138 18-364 P48I limits assumed): as the sequence (P20138 18-364 P46L limits assumed) above, with L29P, P31I counted along it

[20] = target: human CD33 W22Q (human, UniProt P20138 18-364)
human CD33 W22Q, sequence (P20138 18-364 W22Q limits assumed): as the sequence (P20138 18-364 P46L limits assumed) above, with W5Q, L29P counted along it

[21] = target: human CD33 P132K (human, UniProt P20138 18-364)
human CD33 P132K, sequence (P20138 18-364 P132K limits assumed): as the sequence (P20138 18-364 P46L limits assumed) above, with L29P, P115K counted along it

[22] = target: human CD33 S131F (human, UniProt P20138 18-364)
human CD33 S131F, sequence (P20138 18-364 S131F limits assumed): as the sequence (P20138 18-364 P46L limits assumed) above, with L29P, S114F counted along it

[23] = target: human CD33 S131W (human, UniProt P20138 18-364)
human CD33 S131W, sequence (P20138 18-364 S131W limits assumed): as the sequence (P20138 18-364 P46L limits assumed) above, with L29P, S114W counted along it

[24] = target: human CD33 P132S (human, UniProt P20138 18-364)
human CD33 P132S, sequence (P20138 18-364 P132S limits assumed): as the sequence (P20138 18-364 P46L limits assumed) above, with L29P, P115S counted along it

[25] = target: human CD33 P132L (human, UniProt P20138 18-364)
human CD33 P132L, sequence (P20138 18-364 P132L limits assumed): as the sequence (P20138 18-364 P46L limits assumed) above, with L29P, P115L counted along it

[26] = target: human CD33 S131K (human, UniProt P20138 18-364)
human CD33 S131K, sequence (P20138 18-364 S131K limits assumed): as the sequence (P20138 18-364 P46L limits assumed) above, with L29P, S114K counted along it

[27] = target: human CD33 P132F (human, UniProt P20138 18-364)
human CD33 P132F, sequence (P20138 18-364 P132F limits assumed): as the sequence (P20138 18-364 P46L limits assumed) above, with L29P, P115F counted along it

[28] = target: human CD33 P132Y (human, UniProt P20138 18-364)
human CD33 P132Y, sequence (P20138 18-364 P132Y limits assumed): as the sequence (P20138 18-364 P46L limits assumed) above, with L29P, P115Y counted along it

human CD33 H45Y, sequence (P20138 18-364 H45Y limits assumed): as the sequence (P20138 18-364 P46L limits assumed) above, with H28Y, L29P counted along it
human CD33 P48L, sequence (P20138 18-364 P48L limits assumed): as the sequence (P20138 18-364 P46L limits assumed) above, with L29P, P31L counted along it
human CD33 P48M, sequence (P20138 18-364 P48M limits assumed): as the sequence (P20138 18-364 P46L limits assumed) above, with L29P, P31M counted along it
human CD33 Q24S, sequence (P20138 18-364 Q24S limits assumed): as the sequence (P20138 18-364 P46L limits assumed) above, with Q7S, L29P counted along it
human CD33 P46I, sequence (P20138 18-364 P46I limits assumed): as the sequence (P20138 18-364 P46L limits assumed) above, with L29I counted along it
human CD33 F44D, sequence (P20138 18-364 F44D limits assumed): as the sequence (P20138 18-364 P46L limits assumed) above, with F27D, L29P counted along it

binding result [1]: no binding (tested: below 20%)
binding result [2]: no binding (tested: below 20%)
B1: Refmab #4 (antibody, human IgG1, V domains shown)
VH: QVQLVQSGAEVKKPGESVKVSCKASGYTFTNYGMNWVKQAPGQGLEWMGWINTYTGEPTYADKFQGRVTMTTDTSTSTAYMEIRNLGGDDTAVYYCARWSWSDGYYVYFDYWGQGTSVTVSS
VL: DIVMTQSPDSLTVSLGERTTINCKSSQSVLDSSTNKNSLAWYQQKPGQPPKLLLSWASTRESGIPDRFSGSGSGTDFTLTIDSPQPEDSATYYCQQSAHFPITFGQGTRLEIK

binding result [3]: no binding (tested: below 20%)
binding result [4]: no binding (tested: below 20%)
binding result [5]: no binding (tested: below 20%)
binding result [6]: no binding (tested: below 20%)
binding result [7]: no binding (tested: below 20%)
binding result [8]: no binding (tested: below 20%)
binding result [9]: no binding (tested: below 20%)
binding result [10]: no binding (tested: below 20%)
binding result [11]: no binding (tested: below 20%)
B2: Refmab #3 (antibody, human IgG1, V domains shown)
VH: QVQLVQSGAEVKKPGSSVKVSCKASGYTFTDYNMHWVRQAPGQGLEWIGYIYPYNGGTGYNQKFKSKATITADESTNTAYMELSSLRSEDTAVYYCARGRPAMDYWGQGTLVTVSS
VL: DIQMTQSPSSLSASVGDRVTITCRASESVDNYGISFMNWFQQKPGKAPKLLIYAASNQGSGVPSRFSGSGSGTDFTLTISSLQPDDFATYYCQQSKEVPWTFGQGTKVEIK

binding result [12]: no binding (tested: below 20%)
binding result [13]: no binding (tested: below 20%)
binding result [14]: no binding (tested: below 20%)
binding result [15]: no binding (tested: below 20%)
binding result [16]: no binding (tested: below 20%)
binding result [17]: no binding (tested: below 20%)
binding result [18]: no binding (tested: below 20%)
binding result [19]: no binding (tested: below 20%)
B3: Refmab #5 (antibody, human IgG1, V domains shown)
VH: QVQLVQSGAEVKKPGASVKVSCKASGYTFTNYDINWVRQAPGQGLEWIGWIYPGDGSTKYNEKFKAKATLTADTSTSTAYMELRSLRSDDTAVYYCASGYEDAMDYWGQGTTVTVSS
VL: DIQMTQSPSSLSASVGDRVTINCKASQDINSYLSWFQQKPGKAPKTLIYRANRLVDGVPSRFSGSGSGQDYTLTISSLQPEDFATYYCLQYDEFPLTFGGGTKVEIK

binding result [20]: no binding (tested: below 20%)
binding result [21]: no binding (tested: below 20%)
binding result [22]: no binding (tested: below 20%)
binding result [23]: no binding (tested: below 20%)
binding result [24]: no binding (tested: below 20%)
binding result [25]: no binding (tested: below 20%)
binding result [26]: no binding (tested: below 20%)
binding result [27]: no binding (tested: below 20%)
binding result [28]: no binding (tested: below 20%)
B4: Refmab #6 (antibody, human IgG1, V domains shown)
VH: QVQLQQPGAEVVKPGASVKMSCKASGYTFTSYYIHWIKQTPGQGLEWVGVIYPGNDDISYNQKFQGKATLTADKSSTTAYMQLSSLTSEDSAVYYCAREVRLRYFDVWGQGTTVTVSS
VL: EIVLTQSPGSLAVSPGERVTMSCKSSQSVFFSSSQKNYLAWYQQIPGQSPRLLIYWASTRESGVPDRFTGSGSGTDFTLTISSVQPEDLAIYYCHQYLSSRTFGQGTKLEIK
